Assay results published in the supplement of paper PMC12042874.
± gives the uncertainty stated by the source.

Assay: amyloid nucleation score (Sup35N fusion, yeast selection) (log enrichment); library NNK3; higher = more nucleation; inactive = no reads after selection
In short: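 On medium lacking adenine and uracil, psi-negative yeast expressing peptides of 20 random codons fused to Sup35N were grown 7 days at 30°C after a 24-hour induction with 100 μM copper sulfate. Illumina sequencing of input and output plasmid inserts gave the reads, and sequences under 100 input reads were excluded. The nucleation score is the DiMSum log enrichment of output over input reads, centred on the mode score of non-aggregating sequences.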
Substance KSFLLPCFCRTLWTWMHRHA has an amyloid nucleation score of 1.11 ± 0.14. For KSGTGSNWFWKGGLSGTKKH, the amyloid nucleation score was “inactive”. In the case of KSLTAYSLFVASYLSSFEWG, the amyloid nucleation score is reported as “inactive”. With KSLTDHVNRSFLMVGVWMVK the amyloid nucleation score was “inactive”. In the case of KSSWAIKSSNGTW, the amyloid nucleation score is reported as “inactive”. With KSWGLVHKCSSAFMFPKFCP the amyloid nucleation score was “inactive”. For KTHTPTVQMEL, the amyloid nucleation score was “inactive”. With KTIFFMKGLVMSDDICSDRR the amyloid nucleation score was “inactive”. Substance KTLTKSNIWIG has an amyloid nucleation score of -0.639 ± 0.87. KTRERGLSTGDGTQNEIAGY showed an amyloid nucleation score of -0.123 ± 0.51. For KVFNTL, the amyloid nucleation score was “inactive”. In the case of KVLMST, the amyloid nucleation score is reported as -0.443 ± 1.4. With KVNGYSLMLLDPVGGLTNT the amyloid nucleation score was “inactive”. For KVSCEYSNNKWF, the amyloid nucleation score was “inactive”. In the case of KVWCKMLISSFIWMYVSE, the amyloid nucleation score is reported as “inactive”. In the case of KVWSLYLYVRSTYRL, the amyloid nucleation score is reported as “inactive”. In the case of KWAWVGISCPRYRSRLGYFS, the amyloid nucleation score is reported as “inactive”. For KWFAATVLSNKPREEKRMVT, the amyloid nucleation score was “inactive”. In the case of KWIVQAILSSEL, the amyloid nucleation score is reported as “inactive”. In the case of KWMGKNTKSG, the amyloid nucleation score is reported as “inactive”. KWSLFLYRHGWCRLAGTLLV gave an amyloid nucleation score of -0.443 ± 1. For KWVCYHSWDYTCYHGEWYPS, the amyloid nucleation score was “inactive”. For KYCGQLQFRCIELEGGIKRE, the amyloid nucleation score was “inactive”. In the case of KYCYIEWN, the amyloid nucleation score is reported as “inactive”. In the case of KYDCRGEMLFQ, the amyloid nucleation score is reported as “inactive”. For KYDSY, the amyloid nucleation score was “inactive”. For KYFIINYSVSSNGRKAHYCQ, the amyloid nucleation score was 2.28 ± 0.065. In the case of KYHLGECVLSPLAPKIHWEI, the amyloid nucleation score is reported as “inactive”. In the case of KYIIWLLDDSDLI, the amyloid nucleation score is reported as “inactive”. For KYKAWMVCHTHWSTVKVKRL, the amyloid nucleation score was “inactive”. In the case of KYNFNYPEITLAPTYYMSIT, the amyloid nucleation score is reported as “inactive”. With KYTNTACLSRASIGNMIGQF the amyloid nucleation score was “inactive”. With KYYYVLGMQMYRHLYWTACV the amyloid nucleation score was “inactive”. For LAALLKASWVSHVVSWNKRT, the amyloid nucleation score was “inactive”. For LAAMWPFV, the amyloid nucleation score was “inactive”. With LAASLSGIYCPSLAWRGLKE the amyloid nucleation score was “inactive”. With LACSMLCVDPIADGHNFSYS the amyloid nucleation score was “inactive”. Work on LACSSSCILSPVVGIGFSWN yielded an amyloid nucleation score of 1.89 ± 0.055. For LADNIRFISN, the amyloid nucleation score was “inactive”. For LAIILLFAVRLCRDANGDAM, the amyloid nucleation score was “inactive”. For LAITNIEWSLFIQWTLI, the amyloid nucleation score was “inactive”. LAMPTLLQASVTNLVGDSIV gave an amyloid nucleation score of -0.265 ± 0.39. For LARHSCSSNVYGNLQRTFFG, the amyloid nucleation score was “inactive”. With LASGRHQASVHCRVNSMMYS the amyloid nucleation score was “inactive”. For LASSQLIYRTSRTCPTLLPL, the amyloid nucleation score was 1.3 ± 0.1. With LAYWPSNGCVP the amyloid nucleation score was “inactive”. In the case of LCCTRTSHIMSRVARMAFRV, the amyloid nucleation score is reported as “inactive”. In the case of LCDGCKNMFLLPLY, the amyloid nucleation score is reported as “inactive”. With LCFAVSDCFNYKVLPILMGA the amyloid nucleation score was “inactive”. Work on LCFMRHSLRGWG yielded an amyloid nucleation score of -0.415 ± 0.96. With LCFRLDVSRMCTVSGNIGYC the amyloid nucleation score was 1.57 ± 0.079. For LCGCS, the amyloid nucleation score was “inactive”. With LCHSSRGDIH the amyloid nucleation score was “inactive”. For LCKQTSTTNLSGV, the amyloid nucleation score was “inactive”. For LCPIAMCCSG, the amyloid nucleation score was “inactive”. In the case of LCPVMLDRRSARSKGPALIL, the amyloid nucleation score is reported as “inactive”. With LCRFNLYYWLVFELACSRWN the amyloid nucleation score was “inactive”. For LCRLPLDQTSKPIVTTYAGR, the amyloid nucleation score was “inactive”. In the case of LCRRLQTGMAYHMVSSYFNW, the amyloid nucleation score is reported as “inactive”. In the case of LCSHLEVDSL, the amyloid nucleation score is reported as “inactive”. For LCSRRSGMVRIWIVSSARLY, the amyloid nucleation score was “inactive”. With LCVIWIVSHRRDCMAFCEQQ the amyloid nucleation score was “inactive”. LCVSLNCPQFSFYSLQNQPY showed an amyloid nucleation score of 2.71 ± 0.053. For LCVVEIFTLIGSCCHSDLGW, the amyloid nucleation score was 0.914 ± 0.13. In the case of LCYCLKAVDYRLNFFHKWRH, the amyloid nucleation score is reported as “inactive”.
